The text below walks through data of PMC5998080, “Structural and functional analysis of mRNA export regulation by the nuclear pore complex” (Nature Communications, 2018).

In series [1] the target is T1, GST-Nup155^CTD (human, UniProt O75694 870-1391).
T1 construct: human Nup155, C-terminal domain, residues 870-1391; Limits are those printed for Nup155^CTD; source: E. coli BL21-CodonPlus(DE3)-RIL, purified (Glutathione Sepharose, HiTrap Q, Superdex 200); not shown: GST, N-terminal, kept
T1 sequence (looked up): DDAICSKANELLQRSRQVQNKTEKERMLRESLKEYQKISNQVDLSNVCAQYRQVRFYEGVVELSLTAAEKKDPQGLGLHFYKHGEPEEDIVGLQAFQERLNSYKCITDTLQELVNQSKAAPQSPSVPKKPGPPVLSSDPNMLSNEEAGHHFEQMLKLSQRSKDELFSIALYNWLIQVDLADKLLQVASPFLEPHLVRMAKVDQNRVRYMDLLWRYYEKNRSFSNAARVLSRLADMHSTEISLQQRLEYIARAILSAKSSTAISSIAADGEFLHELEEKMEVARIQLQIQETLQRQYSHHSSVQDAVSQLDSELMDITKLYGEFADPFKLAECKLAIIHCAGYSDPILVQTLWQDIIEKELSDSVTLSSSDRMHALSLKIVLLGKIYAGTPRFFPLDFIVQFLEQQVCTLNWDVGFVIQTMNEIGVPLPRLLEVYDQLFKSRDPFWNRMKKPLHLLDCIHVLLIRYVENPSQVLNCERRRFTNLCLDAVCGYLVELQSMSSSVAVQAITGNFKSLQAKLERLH
In words: pull-down; GST-Nup155^CTD (20 μM) preincubated with a twofold molar ratio of Nup98^ΔFG or SUMO-Gle1^N, then with 0-8-fold molar ratios of the other protein; Glutathione Sepharose beads; 20 mM TRIS (pH 8.0), 100 mM NaCl, 5 mM DTT. Conditions: both partners purified.

Series [2] addresses T2, Nup155 C-terminal domain (Nup155^CTD, residues 870–1391) (human, UniProt O75694 870-1391).
T2 construct: human Nup155, C-terminal domain, residues 870-1391; also called His6-Nup155^CTD; source: E. coli BL21-CodonPlus(DE3)-RIL, purified (Ni-NTA, HiTrap Q, Superdex 200); not shown: His6, N-terminal, cleaved
T2 sequence (looked up): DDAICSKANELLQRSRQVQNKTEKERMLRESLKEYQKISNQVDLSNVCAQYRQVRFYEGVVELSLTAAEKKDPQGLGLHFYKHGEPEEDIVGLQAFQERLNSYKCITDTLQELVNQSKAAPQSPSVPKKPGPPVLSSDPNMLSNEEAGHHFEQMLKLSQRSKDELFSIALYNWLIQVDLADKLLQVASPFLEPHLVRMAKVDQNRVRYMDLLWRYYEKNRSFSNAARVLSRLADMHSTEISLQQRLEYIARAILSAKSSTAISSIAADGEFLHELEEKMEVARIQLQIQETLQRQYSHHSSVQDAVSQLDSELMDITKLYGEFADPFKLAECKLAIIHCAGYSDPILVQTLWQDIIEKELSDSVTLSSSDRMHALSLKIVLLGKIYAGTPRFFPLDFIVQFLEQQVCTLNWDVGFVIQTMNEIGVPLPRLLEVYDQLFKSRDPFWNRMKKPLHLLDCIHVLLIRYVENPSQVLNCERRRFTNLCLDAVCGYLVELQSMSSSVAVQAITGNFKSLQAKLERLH
In words: SEC; Superdex 200 10/300 GL; 20 mM TRIS (pH 8.0), 100 mM NaCl, 5 mM DTT; proteins mixed and incubated 30 min on ice, twofold molar excess of the smaller component; fractions on Coomassie-stained SDS-PAGE. Conditions: both partners purified. On the technique in general: In gel filtration, larger molecules generally elute earlier.

Series [3] addresses T3, DDX19 (wild type) (Homo sapiens, UniProt Q9UMR2 1-479).
T3 sequence: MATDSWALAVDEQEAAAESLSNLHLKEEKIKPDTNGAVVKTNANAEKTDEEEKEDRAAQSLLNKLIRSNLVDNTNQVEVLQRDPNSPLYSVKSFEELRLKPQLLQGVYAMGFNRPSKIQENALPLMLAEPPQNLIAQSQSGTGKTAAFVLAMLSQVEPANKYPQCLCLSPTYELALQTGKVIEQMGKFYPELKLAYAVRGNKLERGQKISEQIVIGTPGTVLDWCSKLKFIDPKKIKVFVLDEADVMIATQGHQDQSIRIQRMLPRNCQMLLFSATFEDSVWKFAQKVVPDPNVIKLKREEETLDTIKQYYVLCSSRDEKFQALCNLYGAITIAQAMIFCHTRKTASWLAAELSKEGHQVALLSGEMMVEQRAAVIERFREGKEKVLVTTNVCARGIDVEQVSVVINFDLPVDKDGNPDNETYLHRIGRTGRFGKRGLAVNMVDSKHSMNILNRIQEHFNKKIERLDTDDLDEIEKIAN
In words: EMSA; + 1 uM Gle1CTD(382-698)•Nup42GBM(379-423): binding enhanced; 1 mM AMP-PNP, 2 mM MgCl2; 20 mM TRIS pH 8.0, 100 mM NaCl, 2 mM MgCl2, 1 mM DTT, 10% glycerol, 1 mM AMP-PNP; 25 ng RNA in 10 ul; 20 min on ice; 1.4% native agarose gel, 0.25x TBE, room temperature. Conditions: protein: recombinant; tags: His6 removed by PreScission protease; label: none (SYBR gold stain); single strand.

B1: SUMO-Gle1^N (SUMO fusion of human Gle1 residues 2–33) (domain or fragment, UniProt Q53GS7 2-33, looked up)
chain: PSEGRCWETLKALRSSDKGRLCYYRDWLLRRE
notes: human Gle1 (splice variant Gle1B), N-terminal residues 2-33; No cleavage of the His6-SUMO tag is described for this construct; also called His6-SUMO-hsGle1^N; source: E. coli BL21-CodonPlus(DE3)-RIL, purified (Ni-NTA, HiTrap Q, Superdex 200); not shown: SUMO, N-terminal, kept
Turning to B1, the binding result in series [1] and in series [2] was “binds” throughout.

B2: Nup98 lacking the FG repeat region (Nup98^∆FG, residues 498–880) (domain or fragment, human, UniProt P52948 498-880, looked up)
chain: QAVLQQHINSLTYSPFGDSPLFRNPMSDPKKKEERLKPTNPAAQKALTTPTHYKLTPRPATRVRPKALQTTGTAKSHLFDGLDDDEPSLANGAFMPKKSIKKLVLKNLNNSNLFSPVNRDSENLASPSEYPENGERFSFLSKPVDENHQQDGDEDSLVSHFYTNPIAKPIPQTPESAGNKHSNSNSVDDTIVALNMRAALRNGLEGSSEETSFHDESLQDDREEIENNSYHMHPAGIILTKVGYYTIPSMDDLAKITNEKGECIVSDFTIGRKGYGSIYFEGDVNLTNLNLDDIVHIRRKEVVVYLDDNQKPPVGEGLNRKAEVTLDGVWPTDKTSRCLIKSPDRLADINYEGRLEAVSRKQGAQFKEYRPETGSWVFKVSHF
notes: human Nup98, construct lacking the FG repeat region, residues 498-880; also called Nup98^ΔFG; His6-SUMO-Nup98^∆FG; source: E. coli BL21-CodonPlus(DE3)-RIL, purified (Ni-NTA, HiTrap Q, Superdex 200); not shown: His6, N-terminal, cleaved; SUMO, N-terminal, cleaved
In the case of B2, the binding result in series [1] and in series [2] was “binds” each time.

B3: 53-nt ssRNA probe (ssRNA)
RNA: GUUUUUUUUUUUUUUUUUUUUCUCGAUCCGUAGUGAUCUACUGAGCAUCUCCC
Consider B3, for which, in series [3], the binding result is recorded as “binds”.
